Seven substances from patent US20200024330A1 can be followed below.

For test [1], the target named is MuLV envelope protein (control pseudovirus) (MuLV). In words: cell-based or functional assay.
The target of test [2] is HIV-1 Env of isolate DU156 (HIV-1). The test is described as follows: cell-based or functional assay.
In test [3] the target is HIV-1 Env of isolate ZM233 (HIV-1). The test is described as follows: cell-based or functional assay.
Test [4] deals with HIV-1 APV17 Env (clade B pseudovirus) (HIV-1). The test is described as follows: cell-based or functional assay.
The target in test [5] is HIV-1 MGRM-A-010 Env (clade A pseudovirus) (HIV-1). In words: cell-based or functional assay.
The target of test [6] is HIV-1 92TH021 Env (pseudovirus) (HIV-1). The test is described as follows: cell-based or functional assay.
The target in test [7] is HIV-1 CMU02 Env (pseudovirus) (HIV-1). The test is described as follows: cell-based or functional assay.
Test [8] addresses HIV-1 92UG024 Env (pseudovirus) (HIV-1). In words: cell-based or functional assay.
For test [9], the target named is HIV-1 92UG005 Env (pseudovirus) (HIV-1). The test is described as follows: cell-based or functional assay.
Test [10] has as its target HIV-1 MGRM-C-028 Env (pseudovirus) (HIV-1). The test is described as follows: cell-based or functional assay.
The target in test [11] is HIV-1 Env of isolate CMU02 (clade AE) (HIV-1). The test is described as follows: cell-based or functional assay.
Test [12] deals with aMLV envelope (negative control pseudovirus) (aMLV). In words: cell-based or functional assay.
Test [13] addresses HIV-1 Env of isolate 93UG077 (clade A) (HIV-1). In words: cell-based or functional assay.
Test [14] concerns the target JR-FL gp120 ΔV3 (HIV-1 (isolate JR-FL)). In words: ELISA on coated gp120; EC50 by nonlinear regression. For orientation: An ELISA detects its analyte on a solid surface through an enzyme-linked reagent.
The target in test [15] is Endo H treated JR-FL gp120 (HIV-1 (isolate JR-FL)). Described as above.
Test [16] deals with HIV-1 envelope glycoprotein (Env) of isolate APV_13, on pseudovirus (HIV-1). The test is described as follows: cell-based or functional assay.
Test [17] concerns the target HIV-1 envelope glycoprotein (Env) of isolate MGRM-Chronic-B-011, on pseudovirus (HIV-1). The test is described as follows: cell-based or functional assay.
The target in test [18] is HIV-1 Env of isolate MGRM-F1-023 (clade F), on pseudovirus (HIV-1). The test is described as follows: cell-based or functional assay.
The target of test [19] is HIV-1 Env of isolate QH0692.42 (subtype B) (HIV-1). In words: cell-based or functional assay.
Test [20] addresses HIV-1 Env of isolate 6535.3 (HIV-1). The test is described as follows: cell-based or functional assay.
Test [21] addresses HIV-1 Env of isolate 98CN006 (subtype CRF08 BC), on pseudovirus (HIV-1). In words: cell-based or functional assay.
Test [22] deals with HIV-1 Env of isolate MG RM-A-007 (pseudovirus) (HIV-1). In words: cell-based or functional assay.
Test [23] concerns the target HIV-1 Env of isolate MG RM-A-014 (pseudovirus) (HIV-1). In words: cell-based or functional assay.
Test [24] concerns the target HIV-1 Env of isolate 92UG001 (subtype D), on pseudovirus (HIV-1). In words: cell-based or functional assay.
The target in test [25] is HIV-1 Env of isolate MG RM-A-005 (pseudovirus) (HIV-1). In words: cell-based or functional assay.
Test [26] has as its target HIV-1 Env of isolate 92UG114 (subtype D), on pseudovirus (HIV-1). In words: cell-based or functional assay.
The target of test [27] is HIV-1 Env of isolate 94UG103 (pseudovirus) (HIV-1). The test is described as follows: cell-based or functional assay.
Test [28] deals with HIV-1 Env of isolate 92UG024 (subtype D), on pseudovirus (HIV-1). The test is described as follows: cell-based or functional assay.
For test [29], the target named is HIV-1 Env of isolate 94 KE 105 (pseudovirus) (HIV-1). In words: cell-based or functional assay.
For test [30], the target named is HIV-1 Env of isolate 93WR029 (pseudovirus) (HIV-1). The test is described as follows: cell-based or functional assay.

Sequence of 1443_C16 (PG16) (TCN-116) (antibody) (VH): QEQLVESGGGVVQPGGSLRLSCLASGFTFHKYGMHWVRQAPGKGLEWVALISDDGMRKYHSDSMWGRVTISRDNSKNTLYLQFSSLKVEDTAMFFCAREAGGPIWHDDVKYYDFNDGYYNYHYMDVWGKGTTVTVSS
Sequence of 1443_C16 (PG16) (TCN-116) (antibody) (VL): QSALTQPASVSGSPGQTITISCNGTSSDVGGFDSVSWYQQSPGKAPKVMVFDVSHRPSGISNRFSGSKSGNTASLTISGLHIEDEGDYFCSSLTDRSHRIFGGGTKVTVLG

As for 1443_C16 (PG16) (TCN-116) (antibody), the IC50, pseudovirus neutralization (TZM-bl), control virus in [1] was > 25 µg/mL. For the same substance, the IC50, pseudovirus neutralization (TZM-bl) in test [2] and in [3] was < 0.01 µg/mL in each case.

In test [4], 4877_D15 (PGT-122) (antibody) came in with a Neutralization by PGT-122, IC50 of 0.522 µg/mL; a Neutralization by PGT-122, IC80 of 1.76 µg/mL; a Neutralization by PGT-122, IC90 of 3.58 µg/mL; a Neutralization by PGT-122, IC95 of 6.92 µg/mL. In test [5], the Neutralization by PGT-122, IC50 stood at 1.68 µg/mL; the Neutralization by PGT-122, IC80 is > 10 µg/mL; the Neutralization by PGT-122, IC90 is > 10 µg/mL; the Neutralization by PGT-122, IC95 was > 10 µg/mL.

For 5141_B17 (PGT-126) (antibody), the IC50 (commonly the midpoint of a concentration-inhibition curve) in [6] was 0.115 µg/mL; in test [7], > 10 µg/mL; in [8], > 10 µg/mL; in test [9] it was 0.0181 µg/mL; in [10] it was 0.283 µg/mL. The IC80 (usually the concentration at which the effect reaches the 80% level) in [6] is 1.62 µg/mL; in test [7], > 10 µg/mL; in [8], > 10 µg/mL; in [9], 0.145 µg/mL; in test [10], 2.62 µg/mL. For the same substance, the IC90 (as a rule, the concentration needed for an effect of 90%) in test [6] is 6.91 µg/mL; in test [7], > 10 µg/mL; in test [8], > 10 µg/mL; in [9], 0.553 µg/mL; in test [10], > 10 µg/mL. Besides, the IC95 (usually the point of the concentration-response curve where the effect stands at 95%) in [6] is > 10 µg/mL; in test [7], > 10 µg/mL; in [8] it was > 10 µg/mL; in test [9], 2.45 µg/mL; in test [10], > 10 µg/mL.

For the substance 5147_N06 (PGT-130) (antibody), in test [11], the neutralization IC50 was > 10 µg/mL, the neutralization IC80 is > 10 µg/mL, the neutralization IC90 was > 10 µg/mL and the neutralization IC95 was > 10 µg/mL. Besides, in test [12], the neutralization IC50 is > 10 µg/mL, the neutralization IC80 was > 10 µg/mL, the neutralization IC90 was > 10 µg/mL and the neutralization IC95 is > 10 µg/mL. Besides, in test [13], the neutralization IC50 was > 10 µg/mL, the neutralization IC80 was > 10 µg/mL, the neutralization IC90 was > 10 µg/mL and the neutralization IC95 is > 10 µg/mL.

On to PGT-121 (antibody), for which the EC50 in test [14] and in [15] was > 10 µg/mL in each case.

For the substance PGV04 (antibody), the IC50, pseudovirus neutralization in test [16] was 1.23 µg/mL; in [17], 0.497 µg/mL. In addition, the IC50 (µg/mL), single-round pseudovirus neutralization in test [18] was found to be 0.171 µg/mL. The substance further returned an IC50 (µg/mL), pseudovirus neutralization in test [19] of 1.9 µg/mL.

The substance VRC01 (antibody) showed an IC50 in test [20] of 1.75 µg/mL. For the same substance, the IC50, pseudovirus neutralization was 0.644 µg/mL in test [21], 1.16 µg/mL in test [24], 0.33 µg/mL in test [26] and 0.576 µg/mL in [28]. Moreover, the IC50 (µg/mL), pseudovirus neutralization in [22] came to 12.6 µg/mL; in test [23] it was 0.135 µg/mL; in test [25], 0.095 µg/mL; in test [27], 0.285 µg/mL; in test [29], 0.499 µg/mL; in [30], 1.57 µg/mL.
